Assay results as given in the supplement of paper PMC10724198.
± gives the standard deviation of the averaged measurements.

Tested on: Saccharomyces cerevisiae
Experiment: protein stability index of tFT-peptide fusion (C-terminal peptide) (PSI (0-1 scale)); higher = more stable (slower turnover)
Settings: genetic background: wild type; temperature: 30 C
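Also: PSI is a weighted mean of sequencing reads over stability bins, variants kept only with over 10 reads, mCherry proximal and sfGFP distal, peptide attached via GGGS linker.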

GGGGGGGSRTGA
protein stability index: 0.691 ± 0.037

PHPPHRLPYPRL
protein stability index: 0.808 ± 0.054

TSKGLGSRSAHP
protein stability index: 0.665 ± 0.044

PPPPLAPLPPAS
protein stability index: 0.608 ± 0.12

FSVFFSPQRGCM
protein stability index: 0.759 ± 0.1

LPPSLPTHLSHP
protein stability index: 0.7629 ± 0.0041

VHAGVLTMADPT
protein stability index: 0.653 ± 0.05

LSVFAFRGVFRF
protein stability index: 0.638 ± 0.045

RLFTTVHSLQDV
protein stability index: 0.674 ± 0.016

PASDPPHRDPPH
protein stability index: 0.658 ± 0.019

LPRFAPPNPALP
protein stability index: 0.658 ± 0.071

GEDGCGWSEAGG
protein stability index: 0.664 ± 0.017

DGWKERDSGVVG
protein stability index: 0.701 ± 0.018

LGGHLFPLGPRR
protein stability index: 0.664 ± 0.007

LPFCLPAPLPPP
protein stability index: 0.708 ± 0.04

HRQERLETKTYF
protein stability index: 0.623 ± 0.13

FKSCSLHCSRCS
protein stability index: 0.682 ± 0.12

LDLCTVIRFVGI
protein stability index: 0.723 ± 0.029

GCRLVSDCRVFV
protein stability index: 0.67 ± 0.031

FGYSGCVAKTGL
protein stability index: 0.658 ± 0.049

GGWKINYVEENR
protein stability index: 0.663 ± 0.011

GSVRLLDNLQRL
protein stability index: 0.663 ± 0.057

EGRRAVGRGRGR
protein stability index: 0.672 ± 0.05

CLHFSFFTFENF
protein stability index: 0.67 ± 0.02

IMKQHNYIGFVF
protein stability index: 0.608 ± 0.062

RNKNNKKNKKIR
protein stability index: 0.702 ± 0.1

VGNSLRCRGGWR
protein stability index: 0.628 ± 0.069

FRSRGPVGMGAS
protein stability index: 0.686 ± 0.1

NYKVRKQKVDRN
protein stability index: 0.674 ± 0.062

QSLRRLSSSSCI
protein stability index: 0.707 ± 0.058

QSSWVGRWVRGG
protein stability index: 0.659 ± 0.02

RNYQKAKENMKL
protein stability index: 0.585 ± 0.14

PPYPPETPPVHP
protein stability index: 0.724 ± 0.037

SMLVPLPPFSSA
protein stability index: 0.694 ± 0.0097

PLKPPTPDPPHR
protein stability index: 0.666 ± 0.027

GRGLVSWEAGGV
protein stability index: 0.716 ± 0.018

PPPPLPHPPAAS
protein stability index: 0.7 ± 0.02

ERNKQNVTQKVK
protein stability index: 0.723 ± 0.028

VPLYVDLYLSGA
protein stability index: 0.721 ± 0.043

PCSLPLVLSFPH
protein stability index: 0.6846 ± 0.0037

WLGLGGARGCML
protein stability index: 0.745 ± 0.057

GLFVDIRLHRRT
protein stability index: 0.71 ± 0.017

AHGASLCVPPSP
protein stability index: 0.512 ± 0.013

IVLLSLSCRSPG
protein stability index: 0.594 ± 0.014

VDCEECSFQFQM
protein stability index: 0.586 ± 0.15

GGAAAWAERCGG
protein stability index: 0.726 ± 0.0097

GCASTNTPSTTP
protein stability index: 0.714 ± 0.022

WGPPPPYSPFSL
protein stability index: 0.713 ± 0.0089

VDSLFGSRVLRL
protein stability index: 0.727 ± 0.097

YLYLKSRDTFLN
protein stability index: 0.7094 ± 0.0013

YKPKGSKKFKNK
protein stability index: 0.624 ± 0.029

PLPPHVPPSLPP
protein stability index: 0.679 ± 0.0083

LVSACIRFPPSH
protein stability index: 0.716 ± 0.079

LALSVRFFSVLF
protein stability index: 0.587 ± 0.036

FCRVCLAFLSGL
protein stability index: 0.781 ± 0.22

RVGVRGVVVSMG
protein stability index: 0.612 ± 0.075

LCANDRGVAALA
protein stability index: 0.683 ± 0.046

GVGWFGRGTVGW
protein stability index: 0.676 ± 0.035

RVVGGGGEAWRE
protein stability index: 0.73 ± 0.033

AHPLSVSSFLSF
protein stability index: 0.671 ± 0.0073

LLNLQEEADLPS
protein stability index: 0.724 ± 0.035

CARAAFRGYYAQ
protein stability index: 0.744 ± 0.074

KDKSQKKERQKT
protein stability index: 0.664 ± 0.029

CVAGSARVCDVR
protein stability index: 0.627 ± 0.083

QWAGGQERTAGK
protein stability index: 0.583 ± 0.024

DVVWRVVNDSDL
protein stability index: 0.712 ± 0.051

HSGPPSPFPLNV
protein stability index: 0.718 ± 0.034

GKEGGKAGKISE
protein stability index: 0.667 ± 0.028

LWLLVAPGPPAQ
protein stability index: 0.682 ± 0.027

ATYNASLERLRP
protein stability index: 0.719 ± 0.2

DVLCALYFGRSK
protein stability index: 0.707 ± 0.045

VQDFTFLLPLAP
protein stability index: 0.692 ± 0.17

PPLLPPTPPLSA
protein stability index: 0.625 ± 0.018

CGAAFRSWTVRG
protein stability index: 0.653 ± 0.067

SLLLPPRPPPRV
protein stability index: 0.744 ± 0.055

PLPFRSSPLLVL
protein stability index: 0.614 ± 0.05

LHPRCVLPHFRV
protein stability index: 0.627 ± 0.032

SAGVIVPGRAGR
protein stability index: 0.761 ± 0.082

VTNVTSETRVLT
protein stability index: 0.6816 ± 0.0013

GRGLFRVVGLWV
protein stability index: 0.614 ± 0.043

LLSPPPTPFPLP
protein stability index: 0.666 ± 0.061

PPQSPPPGSPPP
protein stability index: 0.649 ± 0.013

VYTEFWERQGLL
protein stability index: 0.796 ± 0.051

TVGSPTPRSSAP
protein stability index: 0.707 ± 0.0098

KYPRPNSYFVPI
protein stability index: 0.717 ± 0.023

LRAHHHSAKFQY
protein stability index: 0.6608 ± 0.0056

DRRKRMLLLEHP
protein stability index: 0.76 ± 0.054

PPPRRPPPRLLS
protein stability index: 0.705 ± 0.11

GGCSRYVLILFD
protein stability index: 0.686 ± 0.15

PPPPLPPPTLPT
protein stability index: 0.726 ± 0.11

VVTEKLKRAARA
protein stability index: 0.669 ± 0.021

VHRRRVSVGGGV
protein stability index: 0.69044 ± 0.00032

ERPRRDTTVSDT
protein stability index: 0.653 ± 0.0083

LGLLVLARFSPL
protein stability index: 0.7076 ± 0.0053

GAWFSWLGEVVG
protein stability index: 0.701 ± 0.075

PFGSYIRHRENT
protein stability index: 0.759 ± 0.14

PPAPPLSSPPPS
protein stability index: 0.662 ± 0.053

VLLLRPTPPLFH
protein stability index: 0.663 ± 0.046

SRKEKNEKRSWG
protein stability index: 0.674 ± 0.041

PFPHLYTPRLLF
protein stability index: 0.571 ± 0.014

LSGSRAFVTVVL
protein stability index: 0.644 ± 0.034
